Reference: article PMC9496473, “Generation and Validation of an Anti-Human PANK3 Mouse Monoclonal Antibody” (Biomolecules, 2022)

Target: the molecule itself
Assay: SEC; Ni-NTA eluate of His-PANK3 further subjected to size-exclusion gel chromatography; all purification steps at 4 °C

B1: His-tagged recombinant human PANK3 protein (residues Pro12 to Asn368) (enzyme, UniProt Q9H999 12-368, looked up)
chain: PWFGMDIGGTLVKLSYFEPIDITAEEEQEEVESLKSIRKYLTSNVAYGSTGIRDVHLELKDLTLFGRRGNLHFIRFPTQDLPTFIQMGRDKNFSTLQTVLCATGGGAYKFEKDFRTIGNLHLHKLDELDCLVKGLLYIDSVSFNGQAECYYFANASEPERCQKMPFNLDDPYPLLVVNIGSGVSILAVHSKDNYKRVTGTSLGGGTFLGLCSLLTGCESFEEALEMASKGDSTQADKLVRDIYGGDYERFGLPGWAVASSFGNMIYKEKRESVSKEDLARATLVTITNNIGSVARMCAVNEKINRVVFVGNFLRVNTLSMKLLAYALDYWSKGQLKALFLEHEGYFGAVGALLGLPN
notes: Pantothenate kinase 3 (PANK3), human, residues Pro12 to Asn368, from a pET28a plasmid bought from Addgene (25518); also called His-PANK3; recombinant PANK3; source: E. coli BL21 (DE3) and E. coli Rosetta2 (DE3), purified (Ni-NTA, size-exclusion chromatography); not shown: His6, N-terminal, kept
**Q.** B1 was tested. Which “stoichiometry N” value did it give?
**A.** The value was 2.
